Laboratory results reported in publication PMC6910952 (Nature Communications, 2019).

Molecular target: T1, GST-yNpl4 (full length, wild type) (Saccharomyces cerevisiae, UniProt P33755 1-580)
T1 construct: Npl4 of Saccharomyces cerevisiae (yNpl4), full length; codon-optimized synthetic cDNA; also called GST-Npl4; source: E. coli Rosetta (DE3) (pGEX-6P1), purified (Glutathione Sepharose FF, Resource Q); not shown: GST, N-terminal, kept
T1 sequence (looked up): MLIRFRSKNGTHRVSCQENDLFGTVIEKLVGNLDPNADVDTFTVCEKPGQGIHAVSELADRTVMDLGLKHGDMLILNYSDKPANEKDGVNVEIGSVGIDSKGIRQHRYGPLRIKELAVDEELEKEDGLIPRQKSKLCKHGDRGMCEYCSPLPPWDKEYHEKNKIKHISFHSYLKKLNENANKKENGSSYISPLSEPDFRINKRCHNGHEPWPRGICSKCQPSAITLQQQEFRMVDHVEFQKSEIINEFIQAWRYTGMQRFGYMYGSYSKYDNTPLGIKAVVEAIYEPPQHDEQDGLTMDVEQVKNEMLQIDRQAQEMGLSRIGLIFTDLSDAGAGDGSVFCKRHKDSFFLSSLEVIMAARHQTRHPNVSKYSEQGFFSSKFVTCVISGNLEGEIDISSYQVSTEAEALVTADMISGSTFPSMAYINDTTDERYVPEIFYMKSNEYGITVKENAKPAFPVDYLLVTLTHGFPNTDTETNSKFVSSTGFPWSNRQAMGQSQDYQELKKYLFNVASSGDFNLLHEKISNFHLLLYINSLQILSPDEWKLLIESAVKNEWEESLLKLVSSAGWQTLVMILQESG
Assay: pull-down; GST-yNpl4 (0.5 μM) on glutathione beads with 0.5 μM yUfd1 alone; full-length proteins; SDS-PAGE, Coomassie (Fig. 3e)
Details: both partners purified

B1: yUfd1 (full length, untagged) (natural protein, Saccharomyces cerevisiae, UniProt P53044 1-361, looked up)
chain: MFSGFSSFGGGNGFVNMPQTFEEFFRCYPIAMMNDRIRKDDANFGGKIFLPPSALSKLSMLNIRYPMLFKLTANETGRVTHGGVLEFIAEEGRVYLPQWMMETLGIQPGSLLQISSTDVPLGQFVKLEPQSVDFLDISDPKAVLENVLRNFSTLTVDDVIEISYNGKTFKIKILEVKPESSSKSICVIETDLVTDFAPPVGYVEPDYKALKAQQDKEKKNSFGKGQVLDPSVLGQGSMSTRIDYAGIANSSRNKLSKFVGQGQNISGKAPKAEPKQDIKDMKITFDGEPAKLDLPEGQLFFGFPMVLPKEDEESAAGSKSSEQNFQGQGISLRKSNKRKTKSDHDSSKSKAPKSPEVIEID
notes: Ufd1 of Saccharomyces cerevisiae (yUfd1), full length; codon-optimized synthetic cDNA; removal of GST by HRV3C is surmised; also called untagged Ufd1; source: E. coli Rosetta (DE3) (pGEX-6P1), purified
  binding result: binds
